The source of these data is the supplement of paper PMC9112550, “Optimization of the antimicrobial peptide Bac7 by deep mutational scanning” (BMC Biology, 2022).
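Further: peptides expressed intracellularly from a pBAD plasmid library in pooled LB shake-flask culture, induced with 0.3% L-arabinose, DNA abundance read by NGS, three biological replicates, DESeq2 with apeglm shrinkage.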

The test system of this data set is Escherichia coli TOP10. Kind of data set: shrunken log2 fold change of peptide-encoding DNA abundance (4.5 h post-induction vs induction); higher = less antimicrobial activity (less host growth inhibition). As to conditions: time post-induction: 4.5 h; library: site-saturation at positions 5, 18, 19, 20.
On to RRIRMRPPRLPRPRPRPLYEPRP, for which the “shrunken log2 fold change” value turned out to be 0.362.

Consider RRIRFRPPRLPRPRPRPQSLPRP, for which the “shrunken log2 fold change” value was -0.274.

Consider RRIRCRPPRLPRPRPRPGARPRP, for which the “shrunken log2 fold change” value amounted to 0.394.

RRIRVRPPRLPRPRPRPFGNPRP: the “shrunken log2 fold change” value is 0.0432.

With RRIRDRPPRLPRPRPRPPETPRP, the “shrunken log2 fold change” value turned out to be 0.743.

Take RRIRTRPPRLPRPRPRPESFPRP: the “shrunken log2 fold change” value is -0.47.

In the case of RRIRNRPPRLPRPRPRPIHAPRP, the “shrunken log2 fold change” value is -0.0866.

Turning to RRIRMRPPRLPRPRPRPRLWPRP, the “shrunken log2 fold change” value came to 0.103.

With RRIRRRPPRLPRPRPRPKHCPRP, the “shrunken log2 fold change” value amounted to 0.294.

RRIRSRPPRLPRPRPRPASHPRP: the “shrunken log2 fold change” value was -0.167.

As for RRIRPRPPRLPRPRPRPSGEPRP, the “shrunken log2 fold change” value was 0.126.

For RRIRERPPRLPRPRPRPTITPRP, the “shrunken log2 fold change” value was -0.598.

As to RRIRWRPPRLPRPRPRPAPGPRP, the “shrunken log2 fold change” value was 0.634.

For the sequence RRIRIRPPRLPRPRPRPAAAPRP, the “shrunken log2 fold change” value was 0.286.

For RRIRTRPPRLPRPRPRPIKPPRP, the “shrunken log2 fold change” value is -0.0369.

As to RRIRRRPPRLPRPRPRPHDHPRP, the “shrunken log2 fold change” value is 3.24.

RRIRFRPPRLPRPRPRPARNPRP: the “shrunken log2 fold change” value was 0.0979.

Take RRIRVRPPRLPRPRPRPVPRPRP: the “shrunken log2 fold change” value is -0.00795.

For the sequence RRIRHRPPRLPRPRPRPNETPRP, the “shrunken log2 fold change” value is 0.00408.

For RRIRSRPPRLPRPRPRPSEAPRP, the “shrunken log2 fold change” value came out at 0.121.

Take RRIRKRPPRLPRPRPRPWWTPRP: the “shrunken log2 fold change” value is 0.0991.

On to RRIRSRPPRLPRPRPRPHPFPRP, for which the “shrunken log2 fold change” value is -0.25.

For RRIRKRPPRLPRPRPRPPVIPRP, the “shrunken log2 fold change” value is 0.063.

In the case of RRIRNRPPRLPRPRPRPPGHPRP, the “shrunken log2 fold change” value was 0.463.

Take RRIRDRPPRLPRPRPRPFINPRP: the “shrunken log2 fold change” value is -0.337.

Consider RRIRVRPPRLPRPRPRPKPSPRP, for which the “shrunken log2 fold change” value came out at 0.313.

Turning to RRIRGRPPRLPRPRPRPSKCPRP, the “shrunken log2 fold change” value was -0.313.

In the case of RRIRNRPPRLPRPRPRPIPDPRP, the “shrunken log2 fold change” value was -0.0956.

With RRIRLRPPRLPRPRPRPQRWPRP, the “shrunken log2 fold change” value amounted to 0.236.

As for RRIRGRPPRLPRPRPRPDSIPRP, the “shrunken log2 fold change” value turned out to be 0.495.

RRIRMRPPRLPRPRPRPIKKPRP: the “shrunken log2 fold change” value turned out to be 0.0441.

RRIRLRPPRLPRPRPRPSTGPRP: the “shrunken log2 fold change” value was -0.221.

Take RRIRDRPPRLPRPRPRPVWRPRP: the “shrunken log2 fold change” value turned out to be 0.0883.

With RRIRERPPRLPRPRPRPYFCPRP, the “shrunken log2 fold change” value was -0.765.

Take RRIRLRPPRLPRPRPRPSACPRP: the “shrunken log2 fold change” value was -0.484.

For RRIRVRPPRLPRPRPRPEKSPRP, the “shrunken log2 fold change” value stood at 0.0304.

Take RRIRNRPPRLPRPRPRPIKIPRP: the “shrunken log2 fold change” value is -0.357.

As for RRIRFRPPRLPRPRPRPYVDPRP, the “shrunken log2 fold change” value is -0.00112.

For RRIRQRPPRLPRPRPRPSALPRP, the “shrunken log2 fold change” value was -0.0016.

For RRIRQRPPRLPRPRPRPWVRPRP, the “shrunken log2 fold change” value is -0.112.

Consider RRIRCRPPRLPRPRPRPLIIPRP, for which the “shrunken log2 fold change” value is -1.07.

Turning to RRIRRRPPRLPRPRPRPRKNPRP, the “shrunken log2 fold change” value turned out to be 0.179.

As to RRIRRRPPRLPRPRPRPCMNPRP, the “shrunken log2 fold change” value was -0.154.

On to RRIRRRPPRLPRPRPRPEDHPRP, for which the “shrunken log2 fold change” value amounted to 0.122.

For the sequence RRIRPRPPRLPRPRPRPQLPPRP, the “shrunken log2 fold change” value came out at 0.0534.

As for RRIRARPPRLPRPRPRPMTTPRP, the “shrunken log2 fold change” value was determined as 0.505.

Turning to RRIRRRPPRLPRPRPRPWAPPRP, the “shrunken log2 fold change” value was determined as 0.043.

Regarding RRIRKRPPRLPRPRPRPKRLPRP, the “shrunken log2 fold change” value was found to be 0.0257.

In the case of RRIRIRPPRLPRPRPRPYRQPRP, the “shrunken log2 fold change” value is -0.326.

Consider RRIRTRPPRLPRPRPRPDWCPRP, for which the “shrunken log2 fold change” value was -0.0271.

RRIRPRPPRLPRPRPRPNWSPRP: the “shrunken log2 fold change” value came to 0.0504.

On to RRIRQRPPRLPRPRPRPELLPRP, for which the “shrunken log2 fold change” value is 0.534.

In the case of RRIRWRPPRLPRPRPRPRYPPRP, the “shrunken log2 fold change” value is 0.175.

RRIRHRPPRLPRPRPRPFFSPRP: the “shrunken log2 fold change” value is -0.253.

On to RRIRDRPPRLPRPRPRPDVWPRP, for which the “shrunken log2 fold change” value was found to be 0.511.

Take RRIRMRPPRLPRPRPRPKIRPRP: the “shrunken log2 fold change” value was -0.0101.

With RRIRPRPPRLPRPRPRPHMPPRP, the “shrunken log2 fold change” value was -0.154.

Consider RRIRSRPPRLPRPRPRPHIIPRP, for which the “shrunken log2 fold change” value is -0.443.

As to RRIRCRPPRLPRPRPRPEFPPRP, the “shrunken log2 fold change” value is 0.278.

Turning to RRIRYRPPRLPRPRPRPRFCPRP, the “shrunken log2 fold change” value was -0.17.

For the sequence RRIRFRPPRLPRPRPRPTRQPRP, the “shrunken log2 fold change” value amounted to 0.298.

Consider RRIRARPPRLPRPRPRPAQYPRP, for which the “shrunken log2 fold change” value came to 0.175.

For the sequence RRIRYRPPRLPRPRPRPCNPPRP, the “shrunken log2 fold change” value is -0.217.

Consider RRIRVRPPRLPRPRPRPYQNPRP, for which the “shrunken log2 fold change” value was -0.141.

In the case of RRIRKRPPRLPRPRPRPWFGPRP, the “shrunken log2 fold change” value is 0.0558.

For RRIRGRPPRLPRPRPRPIYFPRP, the “shrunken log2 fold change” value was -0.533.

As to RRIRGRPPRLPRPRPRPVFFPRP, the “shrunken log2 fold change” value stood at 0.888.

On to RRIRPRPPRLPRPRPRPDRVPRP, for which the “shrunken log2 fold change” value was 0.187.

Turning to RRIRARPPRLPRPRPRPVLCPRP, the “shrunken log2 fold change” value turned out to be 0.43.

Consider RRIRLRPPRLPRPRPRPFTNPRP, for which the “shrunken log2 fold change” value was 0.0104.

As for RRIRIRPPRLPRPRPRPNDNPRP, the “shrunken log2 fold change” value is -0.912.

Turning to RRIRHRPPRLPRPRPRPYPQPRP, the “shrunken log2 fold change” value is -0.546.

Regarding RRIRVRPPRLPRPRPRPPFYPRP, the “shrunken log2 fold change” value was -0.0377.

For RRIRYRPPRLPRPRPRPLWHPRP, the “shrunken log2 fold change” value was -0.48.

As to RRIRWRPPRLPRPRPRPKWQPRP, the “shrunken log2 fold change” value turned out to be 0.0119.

As for RRIRGRPPRLPRPRPRPLISPRP, the “shrunken log2 fold change” value was found to be 0.364.

Consider RRIRTRPPRLPRPRPRPSAKPRP, for which the “shrunken log2 fold change” value was 0.227.

As to RRIRERPPRLPRPRPRPRAPPRP, the “shrunken log2 fold change” value stood at 0.524.

Consider RRIRWRPPRLPRPRPRPTICPRP, for which the “shrunken log2 fold change” value was -0.106.

As for RRIRPRPPRLPRPRPRPYHTPRP, the “shrunken log2 fold change” value is -1.66.

Take RRIRERPPRLPRPRPRPEMYPRP: the “shrunken log2 fold change” value is -0.00136.

In the case of RRIRYRPPRLPRPRPRPSSFPRP, the “shrunken log2 fold change” value was -0.0941.

Consider RRIRFRPPRLPRPRPRPANNPRP, for which the “shrunken log2 fold change” value was -0.917.

With RRIRLRPPRLPRPRPRPSGYPRP, the “shrunken log2 fold change” value is -0.152.

As for RRIRTRPPRLPRPRPRPNSIPRP, the “shrunken log2 fold change” value was -0.0867.

As for RRIRQRPPRLPRPRPRPFWPPRP, the “shrunken log2 fold change” value turned out to be 0.083.

RRIRPRPPRLPRPRPRPNNTPRP: the “shrunken log2 fold change” value was -0.312.

Take RRIRKRPPRLPRPRPRPWDLPRP: the “shrunken log2 fold change” value was -0.136.

With RRIRQRPPRLPRPRPRPEWFPRP, the “shrunken log2 fold change” value is -0.00295.

RRIRKRPPRLPRPRPRPTHDPRP: the “shrunken log2 fold change” value was -0.101.

As to RRIRVRPPRLPRPRPRPCQQPRP, the “shrunken log2 fold change” value worked out at 0.00938.
